How the values were obtained:
Gq proteins [1] = target: Gq proteins
Gq proteins [2] = target: Gq proteins; remark: listed apart in the source
Gq proteins [3] = target: Gq proteins; remark: listed apart in the source

Row | light-induced increase in Ca^2+ signal (Calbryte 630 AM) in HEK 293T cells (Gq proteins [1]) | Ca^2+ transients (Calbryte 630 AM) in primary mouse astrocytes (Gq proteins [2]) | Ca^2+ signal increase in HEK 293T cells (Gq proteins [3]) | Substance
1 | 3 ΔF/F | 8 ΔF/F | – | Chicken Opn5 (receptor)
2 | 3 ΔF/F | – | – | Turtle Opn5 (receptor)
3 | – | – | 1 ΔF/F | human OPN4 (from UniProt Q9UHM6) (receptor)
4 | – | – | 0.5 ΔF/F | opto-a1AR (receptor)
